This is an account of results in article PMC5717138.

Series [1] can be described thus: denaturing Flag IP, anti-HA-Ub and anti-K48-Ub blot. To be noted: glycan lost; control: wild type.
Series [2] is described as follows: GFP-Polη foci, U2OS, 24 h post-UVC. To be noted: glycan lost; control: wild type.
Series [3] can be described thus: in vitro ubiquitination of E. coli-purified His-Polη. To be noted: control: WT His-Polη without OGT co-expression.
A short description of series [4]: GFP-Polη foci, U2OS, 8 h post-UVC. The conditions noted are these: glycan lost; control: wild type.

B1: DNA polymerase η (Polη): 3A (protein)
parent chain: MATGQDRVVALVDMDCFFVQVEQRQNPHLRNKPCAVVQYKSWKGGGIIAVSYEARAFGVTRSMWADDAKKLCPDLLLAQVRESRGKANLTKYREASVEVMEIMSRFAVIERASIDEAYVDLTSAVQERLQKLQGQPISADLLPSTYIEGLPQGPTTAEETVQKEGMRKQGLFQWLDSLQIDNLTSPDLQLTVGAVIVEEMRAAIERETGFQCSAGISHNKVLAKLACGLNKPNRQTLVSHGSVPQLFSQMPIRKIRSLGGKLGASVIEILGIEYMGELTQFTESQLQSHFGEKNGSWLYAMCRGIEHDPVKPRQLPKTIGCSKNFPGKTALATREQVQWWLLQLAQELEERLTKDRNDNDRVATQLVVSIRVQGDKRLSSLRRCCALTRYDAHKMSHDAFTVIKNCNTSGIQTEWSPPLTMLFLCATKFSASAPSSSTDITSFLSSDPSSLPKVPVTSSEAKTQGSGPAVTATKKATTSLESFFQKAAERQKVKEASLSSLTAPTQAPMSNSPSKPSLPFQTSQSTGTEPFFKQKSLLLKQKQLNNSSVSSPQQNPWSNCKALPNSLPTEYPGCVPVCEGVSKLEESSKATPAEMDLAHNSQSMHASSASKSVLEVTQKATPNPSLLAAEDQVPCEKCGSLVPVWDMPEHMDYHFALELQKSFLQPHSSNPQVVSAVSHQGKRNPKSPLACTNKRPRPEGMQTLESFFKPLTH
Turning to B1, the “other: polyubiquitination” value in series [1] is “decreases”.

B2: DNA polymerase η (Polη): T457D (protein)
parent chain: MATGQDRVVALVDMDCFFVQVEQRQNPHLRNKPCAVVQYKSWKGGGIIAVSYEARAFGVTRSMWADDAKKLCPDLLLAQVRESRGKANLTKYREASVEVMEIMSRFAVIERASIDEAYVDLTSAVQERLQKLQGQPISADLLPSTYIEGLPQGPTTAEETVQKEGMRKQGLFQWLDSLQIDNLTSPDLQLTVGAVIVEEMRAAIERETGFQCSAGISHNKVLAKLACGLNKPNRQTLVSHGSVPQLFSQMPIRKIRSLGGKLGASVIEILGIEYMGELTQFTESQLQSHFGEKNGSWLYAMCRGIEHDPVKPRQLPKTIGCSKNFPGKTALATREQVQWWLLQLAQELEERLTKDRNDNDRVATQLVVSIRVQGDKRLSSLRRCCALTRYDAHKMSHDAFTVIKNCNTSGIQTEWSPPLTMLFLCATKFSASAPSSSTDITSFLSSDPSSLPKVPVTSSEAKTQGSGPAVTATKKATTSLESFFQKAAERQKVKEASLSSLTAPTQAPMSNSPSKPSLPFQTSQSTGTEPFFKQKSLLLKQKQLNNSSVSSPQQNPWSNCKALPNSLPTEYPGCVPVCEGVSKLEESSKATPAEMDLAHNSQSMHASSASKSVLEVTQKATPNPSLLAAEDQVPCEKCGSLVPVWDMPEHMDYHFALELQKSFLQPHSSNPQVVSAVSHQGKRNPKSPLACTNKRPRPEGMQTLESFFKPLTH
For B2, the localisation_or_trafficking result in series [2] is “increases”.

B3: DNA polymerase η (Polη): GST-OGT co-expression (WT) (protein)
parent chain: MATGQDRVVALVDMDCFFVQVEQRQNPHLRNKPCAVVQYKSWKGGGIIAVSYEARAFGVTRSMWADDAKKLCPDLLLAQVRESRGKANLTKYREASVEVMEIMSRFAVIERASIDEAYVDLTSAVQERLQKLQGQPISADLLPSTYIEGLPQGPTTAEETVQKEGMRKQGLFQWLDSLQIDNLTSPDLQLTVGAVIVEEMRAAIERETGFQCSAGISHNKVLAKLACGLNKPNRQTLVSHGSVPQLFSQMPIRKIRSLGGKLGASVIEILGIEYMGELTQFTESQLQSHFGEKNGSWLYAMCRGIEHDPVKPRQLPKTIGCSKNFPGKTALATREQVQWWLLQLAQELEERLTKDRNDNDRVATQLVVSIRVQGDKRLSSLRRCCALTRYDAHKMSHDAFTVIKNCNTSGIQTEWSPPLTMLFLCATKFSASAPSSSTDITSFLSSDPSSLPKVPVTSSEAKTQGSGPAVTATKKATTSLESFFQKAAERQKVKEASLSSLTAPTQAPMSNSPSKPSLPFQTSQSTGTEPFFKQKSLLLKQKQLNNSSVSSPQQNPWSNCKALPNSLPTEYPGCVPVCEGVSKLEESSKATPAEMDLAHNSQSMHASSASKSVLEVTQKATPNPSLLAAEDQVPCEKCGSLVPVWDMPEHMDYHFALELQKSFLQPHSSNPQVVSAVSHQGKRNPKSPLACTNKRPRPEGMQTLESFFKPLTH
For B3, the “other: polyubiquitination” value in series [3] (glycan gained) is recorded as “increases”.

B4: DNA polymerase η (Polη): T457A without OGT (protein)
parent chain: MATGQDRVVALVDMDCFFVQVEQRQNPHLRNKPCAVVQYKSWKGGGIIAVSYEARAFGVTRSMWADDAKKLCPDLLLAQVRESRGKANLTKYREASVEVMEIMSRFAVIERASIDEAYVDLTSAVQERLQKLQGQPISADLLPSTYIEGLPQGPTTAEETVQKEGMRKQGLFQWLDSLQIDNLTSPDLQLTVGAVIVEEMRAAIERETGFQCSAGISHNKVLAKLACGLNKPNRQTLVSHGSVPQLFSQMPIRKIRSLGGKLGASVIEILGIEYMGELTQFTESQLQSHFGEKNGSWLYAMCRGIEHDPVKPRQLPKTIGCSKNFPGKTALATREQVQWWLLQLAQELEERLTKDRNDNDRVATQLVVSIRVQGDKRLSSLRRCCALTRYDAHKMSHDAFTVIKNCNTSGIQTEWSPPLTMLFLCATKFSASAPSSSTDITSFLSSDPSSLPKVPVTSSEAKTQGSGPAVTATKKATTSLESFFQKAAERQKVKEASLSSLTAPTQAPMSNSPSKPSLPFQTSQSTGTEPFFKQKSLLLKQKQLNNSSVSSPQQNPWSNCKALPNSLPTEYPGCVPVCEGVSKLEESSKATPAEMDLAHNSQSMHASSASKSVLEVTQKATPNPSLLAAEDQVPCEKCGSLVPVWDMPEHMDYHFALELQKSFLQPHSSNPQVVSAVSHQGKRNPKSPLACTNKRPRPEGMQTLESFFKPLTH
For the protein B4, the “other: polyubiquitination” value in series [3] (glycan lost) was “no change”.

B5: DNA polymerase η (Polη): Polη-3A (protein)
parent chain: MATGQDRVVALVDMDCFFVQVEQRQNPHLRNKPCAVVQYKSWKGGGIIAVSYEARAFGVTRSMWADDAKKLCPDLLLAQVRESRGKANLTKYREASVEVMEIMSRFAVIERASIDEAYVDLTSAVQERLQKLQGQPISADLLPSTYIEGLPQGPTTAEETVQKEGMRKQGLFQWLDSLQIDNLTSPDLQLTVGAVIVEEMRAAIERETGFQCSAGISHNKVLAKLACGLNKPNRQTLVSHGSVPQLFSQMPIRKIRSLGGKLGASVIEILGIEYMGELTQFTESQLQSHFGEKNGSWLYAMCRGIEHDPVKPRQLPKTIGCSKNFPGKTALATREQVQWWLLQLAQELEERLTKDRNDNDRVATQLVVSIRVQGDKRLSSLRRCCALTRYDAHKMSHDAFTVIKNCNTSGIQTEWSPPLTMLFLCATKFSASAPSSSTDITSFLSSDPSSLPKVPVTSSEAKTQGSGPAVTATKKATTSLESFFQKAAERQKVKEASLSSLTAPTQAPMSNSPSKPSLPFQTSQSTGTEPFFKQKSLLLKQKQLNNSSVSSPQQNPWSNCKALPNSLPTEYPGCVPVCEGVSKLEESSKATPAEMDLAHNSQSMHASSASKSVLEVTQKATPNPSLLAAEDQVPCEKCGSLVPVWDMPEHMDYHFALELQKSFLQPHSSNPQVVSAVSHQGKRNPKSPLACTNKRPRPEGMQTLESFFKPLTH
Turning to B5, the figures for the localisation_or_trafficking entry in series [4] and in series [2] were “no change” and “increases”, respectively.

B6: DNA polymerase η (Polη): 5A (protein)
parent chain: MATGQDRVVALVDMDCFFVQVEQRQNPHLRNKPCAVVQYKSWKGGGIIAVSYEARAFGVTRSMWADDAKKLCPDLLLAQVRESRGKANLTKYREASVEVMEIMSRFAVIERASIDEAYVDLTSAVQERLQKLQGQPISADLLPSTYIEGLPQGPTTAEETVQKEGMRKQGLFQWLDSLQIDNLTSPDLQLTVGAVIVEEMRAAIERETGFQCSAGISHNKVLAKLACGLNKPNRQTLVSHGSVPQLFSQMPIRKIRSLGGKLGASVIEILGIEYMGELTQFTESQLQSHFGEKNGSWLYAMCRGIEHDPVKPRQLPKTIGCSKNFPGKTALATREQVQWWLLQLAQELEERLTKDRNDNDRVATQLVVSIRVQGDKRLSSLRRCCALTRYDAHKMSHDAFTVIKNCNTSGIQTEWSPPLTMLFLCATKFSASAPSSSTDITSFLSSDPSSLPKVPVTSSEAKTQGSGPAVTATKKATTSLESFFQKAAERQKVKEASLSSLTAPTQAPMSNSPSKPSLPFQTSQSTGTEPFFKQKSLLLKQKQLNNSSVSSPQQNPWSNCKALPNSLPTEYPGCVPVCEGVSKLEESSKATPAEMDLAHNSQSMHASSASKSVLEVTQKATPNPSLLAAEDQVPCEKCGSLVPVWDMPEHMDYHFALELQKSFLQPHSSNPQVVSAVSHQGKRNPKSPLACTNKRPRPEGMQTLESFFKPLTH
Turning to B6, the “other: polyubiquitination” value in series [1] was “decreases”.

B7: DNA polymerase η (Polη): Polη-5A (protein)
parent chain: MATGQDRVVALVDMDCFFVQVEQRQNPHLRNKPCAVVQYKSWKGGGIIAVSYEARAFGVTRSMWADDAKKLCPDLLLAQVRESRGKANLTKYREASVEVMEIMSRFAVIERASIDEAYVDLTSAVQERLQKLQGQPISADLLPSTYIEGLPQGPTTAEETVQKEGMRKQGLFQWLDSLQIDNLTSPDLQLTVGAVIVEEMRAAIERETGFQCSAGISHNKVLAKLACGLNKPNRQTLVSHGSVPQLFSQMPIRKIRSLGGKLGASVIEILGIEYMGELTQFTESQLQSHFGEKNGSWLYAMCRGIEHDPVKPRQLPKTIGCSKNFPGKTALATREQVQWWLLQLAQELEERLTKDRNDNDRVATQLVVSIRVQGDKRLSSLRRCCALTRYDAHKMSHDAFTVIKNCNTSGIQTEWSPPLTMLFLCATKFSASAPSSSTDITSFLSSDPSSLPKVPVTSSEAKTQGSGPAVTATKKATTSLESFFQKAAERQKVKEASLSSLTAPTQAPMSNSPSKPSLPFQTSQSTGTEPFFKQKSLLLKQKQLNNSSVSSPQQNPWSNCKALPNSLPTEYPGCVPVCEGVSKLEESSKATPAEMDLAHNSQSMHASSASKSVLEVTQKATPNPSLLAAEDQVPCEKCGSLVPVWDMPEHMDYHFALELQKSFLQPHSSNPQVVSAVSHQGKRNPKSPLACTNKRPRPEGMQTLESFFKPLTH
On to B7, for which the localisation_or_trafficking result in series [4] is “no change”; in series [2], “increases”.

B8: DNA polymerase η (Polη): T457E (protein)
parent chain: MATGQDRVVALVDMDCFFVQVEQRQNPHLRNKPCAVVQYKSWKGGGIIAVSYEARAFGVTRSMWADDAKKLCPDLLLAQVRESRGKANLTKYREASVEVMEIMSRFAVIERASIDEAYVDLTSAVQERLQKLQGQPISADLLPSTYIEGLPQGPTTAEETVQKEGMRKQGLFQWLDSLQIDNLTSPDLQLTVGAVIVEEMRAAIERETGFQCSAGISHNKVLAKLACGLNKPNRQTLVSHGSVPQLFSQMPIRKIRSLGGKLGASVIEILGIEYMGELTQFTESQLQSHFGEKNGSWLYAMCRGIEHDPVKPRQLPKTIGCSKNFPGKTALATREQVQWWLLQLAQELEERLTKDRNDNDRVATQLVVSIRVQGDKRLSSLRRCCALTRYDAHKMSHDAFTVIKNCNTSGIQTEWSPPLTMLFLCATKFSASAPSSSTDITSFLSSDPSSLPKVPVTSSEAKTQGSGPAVTATKKATTSLESFFQKAAERQKVKEASLSSLTAPTQAPMSNSPSKPSLPFQTSQSTGTEPFFKQKSLLLKQKQLNNSSVSSPQQNPWSNCKALPNSLPTEYPGCVPVCEGVSKLEESSKATPAEMDLAHNSQSMHASSASKSVLEVTQKATPNPSLLAAEDQVPCEKCGSLVPVWDMPEHMDYHFALELQKSFLQPHSSNPQVVSAVSHQGKRNPKSPLACTNKRPRPEGMQTLESFFKPLTH
In the case of B8, in series [2], the localisation_or_trafficking result is reported as “increases”.
